Data from patent publication US12692310B2, “ASIC1 channel antagonist antibody” (ShanghaiTech University, priority 2019, dated 2026).

T1: hASIC1a-eYFP on CHO-K1 cells (Homo sapiens, UniProt P78348)
T1 construct: overexpress the full-length hASIC1a (1-528 amino acids) protein fused with eYFP; expressed in transfected cells; host or cells: CHO-K1, transient
T1 sequence (P78348 1-528): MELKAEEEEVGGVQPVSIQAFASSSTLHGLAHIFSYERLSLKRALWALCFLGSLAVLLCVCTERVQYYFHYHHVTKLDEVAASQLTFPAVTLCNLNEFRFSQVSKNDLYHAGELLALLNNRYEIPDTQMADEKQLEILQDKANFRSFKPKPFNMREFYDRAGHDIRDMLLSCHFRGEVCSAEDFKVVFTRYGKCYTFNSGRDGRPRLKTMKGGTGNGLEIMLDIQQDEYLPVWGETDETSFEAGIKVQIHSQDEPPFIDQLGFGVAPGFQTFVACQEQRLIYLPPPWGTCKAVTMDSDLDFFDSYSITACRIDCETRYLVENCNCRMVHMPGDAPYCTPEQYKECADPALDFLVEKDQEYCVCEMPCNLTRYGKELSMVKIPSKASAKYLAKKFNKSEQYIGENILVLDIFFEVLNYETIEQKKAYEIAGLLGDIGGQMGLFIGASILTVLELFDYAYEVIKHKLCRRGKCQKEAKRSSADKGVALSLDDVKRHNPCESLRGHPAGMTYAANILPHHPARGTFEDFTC

T2: hASIC1a-eYFP (human, UniProt P78348 1-528)
T2 construct: whole, on cells; On CHO-K1 cells, stably (6H7) or transiently transfected; also called full-length hASIC1a (1-528 amino acids) fused with eYFP; CHO-K1/hASIC1a cells; not shown: C-terminal eYFP fusion
T2 sequence (looked up): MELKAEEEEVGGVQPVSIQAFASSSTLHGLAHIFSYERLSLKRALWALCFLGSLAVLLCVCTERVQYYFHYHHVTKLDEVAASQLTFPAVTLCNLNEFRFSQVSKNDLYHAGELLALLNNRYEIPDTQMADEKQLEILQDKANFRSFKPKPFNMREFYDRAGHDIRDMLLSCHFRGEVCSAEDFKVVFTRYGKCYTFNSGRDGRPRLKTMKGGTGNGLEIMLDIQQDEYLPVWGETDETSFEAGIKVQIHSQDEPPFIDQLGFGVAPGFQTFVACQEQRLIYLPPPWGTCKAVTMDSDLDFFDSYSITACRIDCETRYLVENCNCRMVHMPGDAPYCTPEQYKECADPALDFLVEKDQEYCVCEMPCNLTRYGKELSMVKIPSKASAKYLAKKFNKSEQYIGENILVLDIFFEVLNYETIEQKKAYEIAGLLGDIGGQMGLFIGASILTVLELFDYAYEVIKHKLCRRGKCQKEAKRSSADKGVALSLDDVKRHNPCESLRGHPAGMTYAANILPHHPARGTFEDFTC


Legend:
[1] = target: T1, hASIC1a-eYFP on CHO-K1 cells; experiment: Immunocytochemistry on CHO-K1/hASIC1a cells; assay type: cell-based; settings: ICC, confocal; for localization to plasma membranes of cells expressing hASIC1a-eYFP: compared to ASC01 and ASC05
Description: Cell Membrane Colocalization Studies Using Immunocytochemistry (ICC). Cells (CHO-K1) were seeded onto the poly-D-lysine-coated glass bottom 24-well plates at a concentration of 2×10^5 cells per mL. After 12 h of cultivation, the CHO-K1 cells were transfected with ASIC plasmids by Lipofectin 3000 reagent. Twenty-four hours after transfection, the cells were fixed in 4% paraformaldehyde and incubated for 30 min in a blocking solution (5% goat serum in PBS). The resulting cells were incubated with […] ASC06-IgG1 at 4° C. overnight followed by three PBS washes for 5 min each and incubation with the Alexa555-conjugated goat anti-human secondary antibody (Life Technology). After three additional PBS washes for 5 min each, the nuclei of the cells were stained with DAPI (#10236276001; Roche). The ICC analysis was performed on a laser scanning confocal microscopy (ZEISS LSM710) with a 63×N.A. 1.4 objective at 25° C. Images were collected on a 1,024×1,024-pixel EM-CCD camera. Data acquisition and analyses were performed with the ZEN 2012 professional software.
To understand whether ASC01-ASC06 specifically bind to the ASIC1a protein expressed on cell surface, the binding of the antibodies to CHO-K1/hASIC1a cells was evaluated using immunocytochemistry. The CHO-K1/hASIC1a cells overexpress the full-length hASIC1a (1-528 amino acids) protein fused with eYFP. […] It is likely that ASC01-ASC05 recognize specific ASIC1a confirmations or subpopulations.
The ASC06 antibody was converted into a full length IgG1 form (ASC06-IgG1) for further study. […] The binding of ASC06-IgG1 to CHO-K1/hASIC1a cells was evaluated using immunocytochemistry, in comparison with the ASC06 (scFv format) antibody.

ΔhASIC1a-nanodiscs = target: T3, ΔhASIC1a-nanodiscs (Homo sapiens, UniProt P78348); experiment: Binding affinities of scFv antibodies to ΔhASIC1a-nanodiscs, Octet system; settings: scFv format; for Response: Conc. 500 nM; for Response / Kd: Octet system; for affinities for ΔhASIC1a nanodiscs, comparison in words: among ASC01-ASC06
T3 construct: A truncated ASIC1a (amino acids 13-464; ΔhASIC1a) was overexpressed and purified; made in house; host or cells: HEK293F (BacMam baculovirus)
Source text: Nanodisc Assembly of hASIC1a Channel. To mimic the lipid bilayer environment of cellular membranes, the purified ΔhASIC1a protein was incorporated into a lipid nanodisc by mixing the ΔhASIC1a protein with the membrane scaffold protein (MSP). and 1,2-dimyristoyl-sn-glycero-3-phosphocholine (DMPC) at a molar ratio of 3:2:65. The associated detergents were removed by gentle agitation with the Bio-Beads SM2 [Bio-Beads:DDM=10:1 (wt/wt); Bio-Rad]overnight. The ΔhASIC1a-embedded nanodiscs were separated from the unassembled nanodisc using the Flag peptide-specific magnetic beads. D'Antona et al., Biochemistry 53:127-134 (2014). The desired ΔhASIC1a nanodisc assembly was further purified and collected using a Superose 6 column (GE Healthcare) in a buffer containing 20 mM Tris, pH 7.5, and 150 mM NaCl. The empty nanodiscs were packaged without the addition of ΔhASIC1a. The composition of the assembled ΔhASIC1a nanodiscs was analyzed by SDS-PAGE, EM, and dynamic light scattering (FIGS. 9A-C, 12A, 12B)
The binding ability of ASC01-ASC06 antibodies in scFv format to ΔhASIC1a-nanodiscs, in comparison to the empty nanodiscs, was evaluated using ELISA. […] Affinities of the antibodies were then measured.

[2] = target: truncated hASIC1a (amino acids 13-464) (human) (UniProt P78348); experiment: Octet, scFv format at 500 nM, ΔhASIC1a nanodiscs
[3] = target: truncated hASIC1a (amino acids 13-464) (human) (UniProt P78348); experiment: Octet, scFv format, ΔhASIC1a nanodiscs
hASIC1a-eYFP = target: T2, hASIC1a-eYFP; experiment: immunocytochemistry, confocal microscopy, CHO-K1 cells expressing hASIC1a-eYFP

T3 sequence (P02647 68-267 partner limits assumed, one chain of several): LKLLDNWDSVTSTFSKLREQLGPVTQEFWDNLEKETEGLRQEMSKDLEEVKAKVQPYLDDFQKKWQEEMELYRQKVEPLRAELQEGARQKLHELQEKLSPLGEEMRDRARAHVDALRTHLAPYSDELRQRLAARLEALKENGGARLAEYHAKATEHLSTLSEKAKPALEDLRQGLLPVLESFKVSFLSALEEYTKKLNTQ

localization to plasma membranes of cells expressing hASIC1a-eYFP [1]	Response (ΔhASIC1a-nanodiscs)	Kd (ΔhASIC1a-nanodiscs) [nM]	Response [2]	Kd [3] [nM]	binding result (hASIC1a-eYFP)	affinities for ΔhASIC1a nanodiscs, comparison in words (ΔhASIC1a-nanodiscs)	membrane co-localization with hASIC1a [1]	Molecule
localized more to the plasma membranes	0.2693	259						ASC03: anti-ASIC1a scFv antibody, VH SEQ ID NO: 22 and VL SEQ ID NO: 27 (antibody, V domains shown, scFv linker; Amino acid sequence of ASC03 VH; Amino acid sequence of ASC03 VL) VH: QVQLVESGAEVKKPGSSVKVSCKASGGNFRKYSISWVRQAPGQGLEWMGWISAYNGNTNYAQKLQGRVTMTTDTSTSTAYMELRSLRSDDTAVYYCARDFDPYYDAFDIWGQGTTVTVSS VL: QSALTQPASVSGSPGQSITISCTGTSSDVGAYNYVSWYQQHPGKAPKLMIYDVSNRLSGVSNRFSGSKSGNRASLTISGLQAEDEADYYCSSYRSGNSLAFGGGTKLTVLG
			0.502	137	binds			ASC05 (scFv, V domains shown, also called ASC05 scFv; ASC05 (scFv format)) VH: QVQLVESGAEVKKPGASVRVSCKASGYSFTNYYMHWVRQAPGQGLEWMGIISPSGRSTSFAQKFQGRVTMTRDTSTSTVYMHLSSLRSDDTAVYYCARGAWSTDAFDIWGQGTTVTVSS VL: QSALTQPASVSGSPGQSITISCTGTSSDVGSYNLVSWYQQHPGKAPKLMIYEGSKRPSGVSNRFSGSKSGNTASLTISGLQAEDEAEYHCSSFTGKGYVFGTGTKLTVLG
	0.5016	137						ASC05: anti-ASIC1a scFv antibody, VH SEQ ID NO: 42 and VL SEQ ID NO: 47 (antibody, V domains shown, scFv linker; Amino acid sequence of ASC05 VH; Amino acid sequence of ASC05 VL) VH: QVQLVESGAEVKKPGASVRVSCKASGYSFTNYYMHWVRQAPGQGLEWMGIISPSGRSTSFAQKFQGRVTMTRDTSTSTVYMHLSSLRSDDTAVYYCARGAWSTDAFDIWGQGTTVTVSS VL: QSALTQPASVSGSPGQSITISCTGTSSDVGSYNLVSWYQQHPGKAPKLMIYEGSKRPSGVSNRFSGSKSGNTASLTISGLQAEDEAEYHCSSFTGKGYVFGTGTKLTVLGGLG
			0.431	45.1	binds			ASC01 (scFv, V domains shown, also called ASC01 scFv; ASC01 (scFv format)) VH: QVQLVETGPRLVKPSQTLSLTCTVSGGSINSGGYYWGWIRQHSGKGLEWIGYIYPRGSSYYNPSLRSRVTISADTSRNNFSLKLTSVTAADTAVYYCARVGYTGAFDIWGQGTLVTVSS VL: QAVLTQPSSVSAAPGQKVTISCSGGNSNIGNNYVSWYQQLPGTAPKLLIYDNNKRPSGIPDRFSGSKSGTAATLGITGLQTGDEADYYCGTWDSSLSAGVFGEGTQLTVLG
	0.431	45.1						ASC01: anti-ASIC1a scFv antibody, VH SEQ ID NO: 2 and VL SEQ ID NO: 7 (antibody, V domains shown, scFv linker; Amino acid sequence of ASC01 VH; Amino acid sequence of ASC01 VL) VH: QVQLVETGPRLVKPSQTLSLTCTVSGGSINSGGYYWGWIRQHSGKGLEWIGYIYPRGSSYYNPSLRSRVTISADTSRNNFSLKLTSVTAADTAVYYCARVGYTGAFDIWGQGTLVTVSS VL: QAVLTQPSSVSAAPGQKVTISCSGGNSNIGNNYVSWYQQLPGTAPKLLIYDNNKRPSGIPDRFSGSKSGTAATLGITGLQTGDEADYYCGTWDSSLSAGVFGEGTQLTVLG
localized more to the plasma membranes	0.995	20.8				strongest affinities		ASC04: anti-ASIC1a scFv antibody, VH SEQ ID NO: 32 and VL SEQ ID NO: 37 (antibody, V domains shown, scFv linker; Amino acid sequence of ASC04 VH; Amino acid sequence of ASC04 VL) VH: QVQLVQSGAEVKKPGSSVKVSCKASGGTFSTYAINWVRQAPGQGLEWMGWMNPNSGNTGYAQKFQGRVTMTRNTSISTAYMELSSLRSEDTAVYYCARYSYGMDVWGQGTTVTVSS VL: QAVLTQPSSLSASPGASVSLTCTLRSGINVGAYRIYWYQQKPGSPPQFLLRYKSDSDKQQGSGVPSRFSGSRDASANAGILLISGLRSEDEADYYCAIWHSSAWVFGGGTKLTVLG
localized more to the plasma membranes	0.2888	262						ASC02: anti-ASIC1a scFv antibody, VH SEQ ID NO: 12 and VL SEQ ID NO: 17 (antibody, V domains shown, scFv linker; Amino acid sequence of ASC02 VH; Amino acid sequence of ASC02 VL) VH: QVQLVQSGAEVKKPGASMKVSCTTSGYTVTGYYIHWLRQAPGQGFEWMGWINPNLGVTNYAQKFQGRVSMTRDPSIKTAYLELSGLRSDDTAMYYCARASTGGIFYDYWGQGTLVTVSS VL: NFMLTQPHSMSESPGKTVTISCTRSSGNIASNYVQWYQQRPGSSPTTVIYDDNQRPSGVPDRFSGSIDSISNSASLTISGLKTEDEADYYCQSYDSSSVIFGGGTKLTVLG
			0.571	21.7				ASC06 (scFv, V domains shown) VH: QVQLQQSGGGLVQPGGSLRLSCAASGFTFSSYAMSWVRQAPGKGLEWVSAISGSGGSTYYADSVKGRFTISRDNSKNTLYLQMNSLRAEDTAVYYCAKDSFYGYSKGDWGQGTLVTVSS VL: QSALTQPASVSGSPGQSITISCTGTSSDVGAYNYVSWYQQQPGKAPKLMIYGVSNRPSGVSNRFSGSKSGNAASLTISGLQAEDEADYYCSSYTSSSTYVFGTGTKLTVLG
localized more to the plasma membranes	0.5712	21.7				strongest affinities	more co-localization with hASIC1a-eYFP	ASC06: anti-ASIC1a scFv antibody, VH SEQ ID NO: 52 and VL SEQ ID NO: 57 (antibody, V domains shown, scFv linker; Amino acid sequence of ASC06 VH; Amino acid sequence of ASC06 VL) VH: QVQLQQSGGGLVQPGGSLRLSCAASGFTFSSYAMSWVRQAPGKGLEWVSAISGSGGSTYYADSVKGRFTISRDNSKNTLYLQMNSLRAEDTAVYYCAKDSFYGYSKGDWGQGTLVTVSS VL: QSALTQPASVSGSPGQSITISCTGTSSDVGAYNYVSWYQQQPGKAPKLMIYGVSNRPSGVSNRFSGSKSGNAASLTISGLQAEDEADYYCSSYTSSSTYVFGTGTKLTVLG
